# T1: fusion protein HBc-122 (HBV)
# T1 chain: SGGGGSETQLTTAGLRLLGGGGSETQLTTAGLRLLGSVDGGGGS
# T2: fusion protein HBc-124 (HBV)
# T2 chain: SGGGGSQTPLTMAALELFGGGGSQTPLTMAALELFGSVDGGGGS
# T3: fusion protein HBc-128 (HBV)
# T3 chain: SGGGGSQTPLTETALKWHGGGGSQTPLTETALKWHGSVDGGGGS
# T4: fusion protein HBc-D125 (HBV)
# T4 chain: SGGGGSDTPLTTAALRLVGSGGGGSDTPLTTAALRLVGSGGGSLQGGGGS
# T5: fusion protein HBc-D123 (HBV)
# T5 chain: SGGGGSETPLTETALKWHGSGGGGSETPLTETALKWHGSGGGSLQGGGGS
# B1: monoclonal antibody 2F2 (antibody, V domains shown)
# VH: QVQLKESGPGLVAPSQRLSITCTVSGFSLTGYGVHWIRQSPGKGLEWLGMIWAEGRTDYNSVLKSRLSINKDNSRSQVFLEMNSLQTDDTARYYCAREVITTEAWYFDVWGQGTSVTES
# VL: DIVMTQSPATLSVTPGDRVSLSCRASQSISDYLYWYQQKSHESPRLLIKYASQSISGIPSRFSGSGSGSDFTLTINSVEPEDVGMYYCQNGHTFPLTFGAGTKLEIKR
# B2: monoclonal antibody 8H5 (antibody, V domains shown)
# VH: QVQLQQSGAELMKPGASVKISCKATGYTFSNYWIEWIKQRPGHGLEWIGEILPGSDRTNYNGKFKGKATFTADTSSNTAHMQLSSLTSEDSAVYYCANRYDGYYFGLDYWGQGTSVAVSS
# VL: EIVLTQSPAIMSASLGEKVTMSCRASSSVNFVYWYQQRSDASPKLLIYYSSNLAPGVPPRFSGSGSGNSYSLTISGLEGEDAATYYCQHFTSSPYTFGGGTNLEIKR
# Key:
# [1] = molecular target: T6, HA of H5N1 virus strain VNM2.1 (avian influenza virus H5N1); test: cell-based or functional assay
# [2] = molecular target: T7, HA of H5N1 virus strain MIX2 (avian influenza virus H5N1); test: cell-based or functional assay
# [3] = molecular target: T8, HA of H5N1 virus strain GD1 (avian influenza virus H5N1); test: cell-based or functional assay
# [4] = molecular target: T9, HA of H5N1 virus strain VTM3 (avian influenza virus H5N1); test: cell-based or functional assay
# [5] = molecular target: T10, HA of H5N1 virus strain GD2 (avian influenza virus H5N1); test: cell-based or functional assay
# [6] = molecular target: T11, HA of H5N1 virus strain VTM1.1 (avian influenza virus H5N1); test: cell-based or functional assay
# [7] = molecular target: T12, HA of H5N1 virus strain HN2 (avian influenza virus H5N1); test: cell-based or functional assay
# [8] = molecular target: T13, HA of H5N1 virus strain IDN4 (avian influenza virus H5N1); test: cell-based or functional assay
# [9] = molecular target: T14, HA of H5N1 virus strain IDN2 (avian influenza virus H5N1); test: cell-based or functional assay
# [10] = molecular target: T15, HA of H5N1 virus strain MIX3 (avian influenza virus H5N1); test: cell-based or functional assay
# [11] = molecular target: T16, HA of H5N1 virus strain MIX1 (avian influenza virus H5N1); test: cell-based or functional assay
# [12] = molecular target: T17, HA of H5N1 virus strain GD3 (avian influenza virus H5N1); test: cell-based or functional assay
# [13] = molecular target: T18, HA of H5N1 virus strain IDN1.1 (avian influenza virus H5N1); test: cell-based or functional assay
# [14] = molecular target: T19, HA of H5N1 virus strain HN1 (avian influenza virus H5N1); test: cell-based or functional assay
# [15] = molecular target: T20, HA of H5N1 virus strain VTM4 (avian influenza virus H5N1); test: cell-based or functional assay
# [16] = molecular target: T21, HA of H5N1 virus strain MB2 (avian influenza virus H5N1); test: cell-based or functional assay
# [17] = molecular target: T22, HA of H5N1 virus strain VTM2 (avian influenza virus H5N1); test: cell-based or functional assay
# [18] = molecular target: T23, HA of H5N1 virus strain IDN5 (avian influenza virus H5N1); test: cell-based or functional assay
# [19] = molecular target: T6, HA of H5N1 virus strain VNM2.1; test: cell-based or functional assay; remark: listed apart in the source
# [20] = molecular target: T7, HA of H5N1 virus strain MIX2; test: cell-based or functional assay; remark: listed apart in the source
# [21] = molecular target: T8, HA of H5N1 virus strain GD1; test: cell-based or functional assay; remark: listed apart in the source
# [22] = molecular target: T9, HA of H5N1 virus strain VTM3; test: cell-based or functional assay; remark: listed apart in the source
# [23] = molecular target: T10, HA of H5N1 virus strain GD2; test: cell-based or functional assay; remark: listed apart in the source
# [24] = molecular target: T11, HA of H5N1 virus strain VTM1.1; test: cell-based or functional assay; remark: listed apart in the source
# [25] = molecular target: T12, HA of H5N1 virus strain HN2; test: cell-based or functional assay; remark: listed apart in the source
# [26] = molecular target: T13, HA of H5N1 virus strain IDN4; test: cell-based or functional assay; remark: listed apart in the source
# [27] = molecular target: T14, HA of H5N1 virus strain IDN2; test: cell-based or functional assay; remark: listed apart in the source
# [28] = molecular target: T15, HA of H5N1 virus strain MIX3; test: cell-based or functional assay; remark: listed apart in the source
# [29] = molecular target: T16, HA of H5N1 virus strain MIX1; test: cell-based or functional assay; remark: listed apart in the source
# [30] = molecular target: T17, HA of H5N1 virus strain GD3; test: cell-based or functional assay; remark: listed apart in the source
# [31] = molecular target: T18, HA of H5N1 virus strain IDN1.1; test: cell-based or functional assay; remark: listed apart in the source
# [32] = molecular target: T19, HA of H5N1 virus strain HN1; test: cell-based or functional assay; remark: listed apart in the source
# [33] = molecular target: T20, HA of H5N1 virus strain VTM4; test: cell-based or functional assay; remark: listed apart in the source
# [34] = molecular target: T24, HA of H5N1 virus strain IDN3 (avian influenza virus H5N1); test: cell-based or functional assay
# [35] = molecular target: T21, HA of H5N1 virus strain MB2; test: cell-based or functional assay; remark: listed apart in the source
# [36] = molecular target: T25, HA of H5N1 virus strain YN1 (avian influenza virus H5N1); test: cell-based or functional assay
# [37] = molecular target: T22, HA of H5N1 virus strain VTM2; test: cell-based or functional assay; remark: listed apart in the source
# [38] = molecular target: T26, HA of H5N1 virus strain MB1 (avian influenza virus H5N1); test: cell-based or functional assay
# [39] = molecular target: T23, HA of H5N1 virus strain IDN5; test: cell-based or functional assay; remark: listed apart in the source
# [40] = molecular target: T24, HA of H5N1 virus strain IDN3; test: cell-based or functional assay; remark: listed apart in the source
# [41] = molecular target: T25, HA of H5N1 virus strain YN1; test: cell-based or functional assay; remark: listed apart in the source
# [42] = molecular target: T26, HA of H5N1 virus strain MB1; test: cell-based or functional assay; remark: listed apart in the source
# fusion protein HBc-122 = molecular target: T1, fusion protein HBc-122; test: indirect ELISA, fusion protein coated at 10 ug/ml, 12 mAb tested
# fusion protein HBc-124 = molecular target: T2, fusion protein HBc-124; test: as above
# fusion protein HBc-128 = molecular target: T3, fusion protein HBc-128; test: as above
# fusion protein HBc-D125 = molecular target: T4, fusion protein HBc-D125; test: ELISA, fusion protein coated at 10 ug/ml
# fusion protein HBc-D123 = molecular target: T5, fusion protein HBc-D123; test: ELISA, fusion protein coated at 10 ug/ml
binder,measurement,setting,value
B1,Neutralization titer,[1],12800 titer
same,Neutralization titer,[2],100 titer
same,Neutralization titer,[3],12800 titer
same,Neutralization titer,[4],12800 titer
same,Neutralization titer,[5],12800 titer
same,Neutralization titer,[6],1600 titer
same,Neutralization titer,[7],12800 titer
same,Neutralization titer,[8],12800 titer
same,Neutralization titer,[9],12800 titer
same,Neutralization titer,[10],12800 titer
same,Neutralization titer,[11],100 titer
same,Neutralization titer,[12],12800 titer
same,Neutralization titer,[13],12800 titer
same,Neutralization titer,[14],12800 titer
same,Neutralization titer,[15],12800 titer
same,Neutralization titer,[16],12800 titer
same,Neutralization titer,[17],12800 titer
same,Neutralization titer,[18],12800 titer
same,HI titer,[19],200 titer
same,HI titer,[20],< 100 titer
same,HI titer,[21],12800 titer
same,HI titer,[22],12800 titer
same,HI titer,[23],12800 titer
same,HI titer,[24],12800 titer
same,HI titer,[25],1600 titer
same,HI titer,[26],12800 titer
same,HI titer,[27],800 titer
same,HI titer,[28],12800 titer
same,HI titer,[29],< 100 titer
same,HI titer,[30],12800 titer
same,HI titer,[31],12800 titer
same,HI titer,[32],6400 titer
same,HI titer,[33],6400 titer
same,HI titer,[34],1600 titer
same,HI titer,[35],6400 titer
same,HI titer,[36],800 titer
same,HI titer,[37],3200 titer
same,HI titer,[38],< 100 titer
same,HI titer,[39],12800 titer
B2,Neutralization titer,[1],3200 titer
same,Neutralization titer,[2],6400 titer
same,Neutralization titer,[3],12800 titer
same,Neutralization titer,[4],12800 titer
same,Neutralization titer,[5],12800 titer
same,Neutralization titer,[6],1600 titer
same,Neutralization titer,[7],6400 titer
same,Neutralization titer,[8],12800 titer
same,Neutralization titer,[9],6400 titer
same,Neutralization titer,[10],12800 titer
same,Neutralization titer,[11],12800 titer
same,Neutralization titer,[12],12800 titer
same,Neutralization titer,[13],12800 titer
same,Neutralization titer,[14],12800 titer
same,Neutralization titer,[15],1600 titer
same,Neutralization titer,[40],12800 titer
same,Neutralization titer,[16],12800 titer
same,Neutralization titer,[41],6400 titer
same,Neutralization titer,[17],800 titer
same,Neutralization titer,[42],6400 titer
same,Neutralization titer,[18],6400 titer
same,HI titer,[19],6400 titer
same,HI titer,[20],6400 titer
same,HI titer,[21],12800 titer
same,HI titer,[22],6400 titer
same,HI titer,[23],12800 titer
same,HI titer,[24],12800 titer
same,HI titer,[25],3200 titer
same,HI titer,[26],12800 titer
same,HI titer,[27],1600 titer
same,HI titer,[28],12800 titer
same,HI titer,[29],12800 titer
same,HI titer,[30],12800 titer
same,HI titer,[31],12800 titer
same,HI titer,[32],12800 titer
same,HI titer,[33],1600 titer
same,HI titer,[34],3200 titer
same,HI titer,[35],6400 titer
same,HI titer,[36],3200 titer
same,HI titer,[37],6400 titer
same,HI titer,[38],3200 titer
same,HI titer,[39],6400 titer
same,binding result,fusion protein HBc-122,binds
same,binding result,fusion protein HBc-124,binds
same,binding result,fusion protein HBc-128,binds
same,binding result,fusion protein HBc-D125,binds
same,binding result,fusion protein HBc-D123,binds

# From patent US20090068637A1 (published 2009)
